Results as given in publication PMC11352241, “Detection of Hepatocellular Carcinoma in an Orthotopic Patient-Derived Xenograft with an Epithelial Cell Adhesion Molecule-Specific Peptide” (Cancers, 2024).
Values belong to the molecule of their own block, whether it stands above or below them. Residues, ends and D or L forms follow the SMILES beside them. No end group written: not given here. *: point of attachment. X2 = CC1(C)C(=CC=C2CCCC(C=CC3=[N+](CCCCS(=O)(=O)[O-])c4ccc(S(=O)(=O)O)cc4C3(C)C)=C2Oc2ccc(S(=O)(=O)O)cc2)N(CCCCCC(=O)NCCN2C(=O)CC(*)C2=O)c2ccc(S(=O)(=O)O)cc21; IRDye800 = IRDye800 near-infrared fluorophore

Tests used:
[1] = Animal necropsy for acute toxicity; format: in vivo, mouse; details: healthy mice, 48 h post-injection, 300 μM, 200 μL PBS; heart, liver, spleen, lung, kidney, stomach, intestine, brain
Procedure: Healthy mice were euthanized at 48 h post-injection with the IRDye800-labeled target peptide (300 μM, 200 μL PBS). Major organs, including liver, kidney, heart, lung, spleen, stomach, intestine, and brain, were resected and submitted for pathological evaluation to assess for acute toxicity.

[2] = system: human HCC patient-derived xenograft (PDX) tumors; assay: In vivo whole-body NIR fluorescence imaging, orthotopic HCC PDX
Procedure: Orthotopic HCC mice were used for imaging ~3–4 weeks post-implantation.
IRDye800-labeled target and control peptides (300 μM, 200 μL PBS), unlabeled target peptide (block, 1.5 mM, 100 μL), and ICG (2.46 mg/kg) were injected in tumor-bearing animals using the tail vein. Unlabeled target peptide was injected 30 min prior to the IRDye800-labeled target peptide to compete for binding. The Pearl Trilogy (LI-COR Biosciences) was used to collect whole-body NIR fluorescence images over a time frame of 24 h post-injection.

Serum stability = format: in vitro ADME; details: 30 μM IRDye800-labeled peptide in mouse serum, 37 °C, 0, 0.5, 1.0, 1.5, 2, 3, 4 and 24 h, analytical RP-HPLC area under the peak; R^2 = 0.99; n = 6 mice in each group; read-out: half-life T1/2 in mouse serum (converted)
Procedure: IRDye800-labeled target peptide measuring 30 μM was incubated with mouse serum at time intervals ranging up to 24 h at 37 °C, and was monitored by analytical RP-HPLC. The relative peptide concentrations were determined by measuring the area under the peak (Waters, Breeze 2).

[3] = Peptide biodistribution in harvested organs; format: in vivo, mouse; details: organs harvested 1.5 h post-injection, NIR fluorescence
Procedure: PDX-implanted mouse livers were exposed by making a small (1–2 cm) incision in the abdomen below the sternum. A custom laparoscope that collects white light and fluorescence images (λex = 785 nm) concurrently were used to image the liver region at 1.5 h post-injection via the tail vein [34]. IRDye800-labeled peptides, unlabeled peptide, and ICG were administrated as described above. Once imaging was completed, major organs, including the heart, spleen, lung, liver, brain, stomach, kidney, and intestine, were collected and imaged with white light and fluorescence to evaluate peptide biodistribution.

tumors = details: ICG, EPR effect; cited from earlier work
Text: An IRDye800-labeled chimeric monoclonal antibody 323/A3 was used to detect a broad range of tumors found clinically. Cell-derived xenograft colon, breast, head and neck, and peritoneal carcinomatosis tumors were implanted orthotopically. Tumor nodules with millimeter dimensions were detected with NIR fluorescence imaging that were not otherwise visible. […] Also, a 7-mer peptide YQ-S2 was labeled with the NIR fluorophore MPA [36]. The peptide was character ... || Image-guided surgery aims to remove all cancerous tissues, and thus requires an effective strategy to discriminate tumor cells from non-tumor cells. NIR fluorescence imaging can be used as an adjunct to conventional laparoscopy to assist the surgeon to identify small and missed lesions. The spectra of white light illumination and IRDye800 fluorescence are sufficiently separated so that both modalities can be used concurrently during surgery. ICG is FDA-approved, and this contrast agent is currently being used clinically to identify HCC in real time. The non-specific NIR dye gathers in t ...

EpCAM [4] = molecular target: T1, EpCAM (Homo sapiens, UniProt P16422); assay: Binding competition with unlabeled peptide on Hep3B cells; format: cell-based; details: confocal microscopy
T1 construct: endogenous in cells; host or cells: Hep3B human hepatocellular carcinoma cells
T1 sequence (P16422 24-314): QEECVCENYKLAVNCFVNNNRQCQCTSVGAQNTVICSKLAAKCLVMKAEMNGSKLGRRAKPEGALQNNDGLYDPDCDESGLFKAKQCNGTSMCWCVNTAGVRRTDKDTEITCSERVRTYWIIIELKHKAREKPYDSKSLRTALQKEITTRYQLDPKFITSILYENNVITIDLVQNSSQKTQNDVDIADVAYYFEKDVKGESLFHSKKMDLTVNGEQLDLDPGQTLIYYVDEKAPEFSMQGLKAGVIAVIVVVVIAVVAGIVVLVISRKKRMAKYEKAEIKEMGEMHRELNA
Procedure: Unlabeled target and control peptide was added to IRDye800-labeled target peptides to compete for binding to EpCAM. Inverted confocal microscopy (Leica, Wetzlar, Germany, Stellaris 5) was used to acquire the NIR fluorescence images, and intensities were measured with custom MATLAB (Mathworks) software (Matlab version R2023a).

EpCAM [5] = details: read-out: binding affinity kd; cited from earlier work
Text: An IRDye800-labeled chimeric monoclonal antibody 323/A3 was used to detect a broad range of tumors found clinically. Cell-derived xenograft colon, breast, head and neck, and peritoneal carcinomatosis tumors were implanted orthotopically. Tumor nodules with millimeter dimensions were detected with NIR fluorescence imaging that were not otherwise visible. […] Also, a 7-mer peptide YQ-S2 was labeled with the NIR fluorophore MPA [36]. The peptide was character ...

HPD*-IRDye800 = molecular target: T2, HPD*-IRDye800; assay: Hep3B cell binding
T2 chain: HPDMFTRTHSHNGGGSC-IRDye800

Molecule: CSCC[C@H](NC(=O)[C@H](CC(=O)O)NC(=O)[C@@H]1CCCN1C(=O)[C@@H](N)Cc1c[nH]cn1)C(=O)N[C@@H](Cc1ccccc1)C(=O)N[C@H](C(=O)N[C@@H](CCCNC(=N)N)C(=O)N[C@H](C(=O)N[C@@H](Cc1c[nH]cn1)C(=O)N[C@@H](CO)C(=O)N[C@@H](Cc1c[nH]cn1)C(=O)N[C@@H](CC(N)=O)C(=O)NCC(=O)NCC(=O)NCC(=O)N[C@@H](CO)C(=O)N[C@@H](CSC1CC(=O)N(CCNC(=O)CCCCCN2C(=CC=C3CCCC(C=CC4=[N+](CCCCS(=O)(=O)[O-])c5ccc(S(=O)(=O)O)cc5C4(C)C)=C3Oc3ccc(S(=O)(=O)O)cc3)C(C)(C)c3cc(S(=O)(=O)O)ccc32)C1=O)C(N)=O)[C@@H](C)O)[C@@H](C)O (some centres unmarked) [HPD*-IRDye800] (H-HPDMFTRTHSHNGGGSC(X2)-NH2)
acute toxicity on histopathology of major organs [1]: No signs of acute peptide toxicity | time of return of intensity to baseline ([2]; whole-body fluorescence images post-injection): ~ 24 h | time of peak uptake by HCC tumor post-injection ([2]; whole-body fluorescence, 300 μM, 200 μL PBS, tail vein, orthotopic HCC PDX in NSG mice, n = 6): 1.5 h | half-life at 30 μM (Serum stability): 2.6 h | uptake in kidney [3]: High uptake

Molecule: CC1(C)C(/C=C/C=C/C=C/C=C2\N(CCCCS(=O)(=O)O)c3ccc4ccccc4c3C2(C)C)=[N+](CCCCS(=O)(=O)[O-])c2ccc3ccccc3c21 [ICG, indocyanine green, reference compound]
T/B ratio at peak uptake ([2]; whole-body imaging, 1.5 h post-injection, tail vein, labeled peptides 300 μM, 200 μL, block = unlabeled HPD* before HPD*-IRDye800, ICG 2.46 mg/kg, mean ± SD, n = 6): 1.26 ± 0.05 | time of maximum tumor absorption post-injection (tumors): > 48 h

Molecule: HPDMFTRTHSHN [HPD*, unlabeled 12-mer EpCAM target peptide …]
effect of unlabeled peptide on HPD*-IRDye800 fluorescence intensity (EpCAM [4]): decrease significantly

Molecule: SNFYMPL [7-mer EpCAM peptide used to label a pH-sensitive polymeric micelle encapsulating paclitaxel]
Kd (EpCAM [5]): 164 nM

The next lines start with the values.

effect of unlabeled peptide on HPD*-IRDye800 fluorescence intensity (EpCAM [4]): did not show an intensity reduction
Molecule: PFHDMHSNHTRT [PFH*, unlabeled scrambled control peptide …]

Kd (HPD*-IRDye800): 67 nM
B1: EpCAM (protein)
chain: QEECVCENYKLAVNCFVNNNRQCQCTSVGAQNTVICSKLAAKCLVMKAEMNGSKLGRRAKPEGALQNNDGLYDPDCDESGLFKAKQCNGTSMCWCVNTAGVRRTDKDTEITCSERVRTYWIIIELKHKAREKPYDSKSLRTALQKEITTRYQLDPKFITSILYENNVITIDLVQNSSQKTQNDVDIADVAYYFEKDVKGESLFHSKKMDLTVNGEQLDLDPGQTLIYYVDEKAPEFSMQGLK
